Results: publication doi:10.1101/2023.12.02.569699 (bioRxiv, 2023)
Where a chain is given by its changes, count along the chain named. Numbers in names are those of the source.

T1: RING1B (H. sapiens, UniProt Q99496 1-336)
T1 sequence: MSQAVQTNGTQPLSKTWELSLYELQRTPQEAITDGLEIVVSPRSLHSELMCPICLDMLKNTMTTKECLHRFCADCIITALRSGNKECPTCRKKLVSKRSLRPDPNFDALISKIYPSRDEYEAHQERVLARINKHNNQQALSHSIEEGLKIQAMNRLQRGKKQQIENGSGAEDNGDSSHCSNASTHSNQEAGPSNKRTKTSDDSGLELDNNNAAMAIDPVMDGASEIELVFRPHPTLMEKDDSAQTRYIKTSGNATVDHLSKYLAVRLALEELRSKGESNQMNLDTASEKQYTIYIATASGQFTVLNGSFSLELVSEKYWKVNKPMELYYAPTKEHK

B1: CBX7 (natural protein)
chain: MELSAIGEQVFAVESIRKKRVRKGKVEYLVKWKGWPPKYSTWEPEEHILDPRLVMAYEEKEERDRASGYRKRGPKPRRLLLQESAAPDVVQTPGDWEPMEQAPEEEAEADLTNGPPPWTPTLPSSEVTVTDITANSVTVTFREAQAAEGFFRDRNEKL
B2: CBX7(F11A) (natural protein)
chain: B1 chain with F11A
B3: MBP-tagged BMI1 (natural protein)
chain: MHRTTRIKITELNPHLMCVLCGGYFIDATTIIECLHSFCKTCIVRYLETSKYCPICDVQVHKTRPLLNIRSDKTLQDIVYKLVPGLFKNEMKRRRDFYAAHPSADAANGSNEDRGEVADEDKRIITDDEIISLSIEFFDQNRLDRKVNKDKEKSKEEVNDKRYLRCPAAMTVMHLRKFLRSKMDIPNTFQIDVMYEEEPLKDYYTLMDIAYIYTWRRNGPLPLKYRVRPTCKRMKISHQRDGLTNAGELESDSGSDKANSPAGGIPSTSSCLPSPSTPVQSPHPQFPHISSTMNGTSNSPSGNHQSSFANRPRKSSVNGSSATSSG

target: T1, RING1B; test: SEC

| Binder | binding result |
| --- | --- |
| B1 | binds |
| B2 | binds |
| B3 | binds |
